Assay results taken from patent US20090175784A1.

Legend:
[1] = biological target: human αVβ3/5 integrins on human tumor cells (A375.S2, MDA-MB-231, A2780, HT29, A549) (human) (UniProt P06756); assay: cell-based or functional assay; set-up: IC50 of doxorubicin, integrin targeted liposome-entrapped dox 90:1, murine melanoma B16-F10 cells (negative control): unit not given beside the values
[2] = biological target: murine αVβ3/5 integrin (murine melanoma cell line B16F10, negative control) (murine) (UniProt P43406); assay: cell-based or functional assay; set-up: IC50 of doxorubicin, integrin targeted liposome-entrapped dox 90:1, murine melanoma B16-F10 cells (negative control): unit not given beside the values
murine αVβ3/5 integrin (murine melanoma cell line B16F10, negative control) (murine), sequence (P43406 31-1044, form in doubt, chain 1 of 3): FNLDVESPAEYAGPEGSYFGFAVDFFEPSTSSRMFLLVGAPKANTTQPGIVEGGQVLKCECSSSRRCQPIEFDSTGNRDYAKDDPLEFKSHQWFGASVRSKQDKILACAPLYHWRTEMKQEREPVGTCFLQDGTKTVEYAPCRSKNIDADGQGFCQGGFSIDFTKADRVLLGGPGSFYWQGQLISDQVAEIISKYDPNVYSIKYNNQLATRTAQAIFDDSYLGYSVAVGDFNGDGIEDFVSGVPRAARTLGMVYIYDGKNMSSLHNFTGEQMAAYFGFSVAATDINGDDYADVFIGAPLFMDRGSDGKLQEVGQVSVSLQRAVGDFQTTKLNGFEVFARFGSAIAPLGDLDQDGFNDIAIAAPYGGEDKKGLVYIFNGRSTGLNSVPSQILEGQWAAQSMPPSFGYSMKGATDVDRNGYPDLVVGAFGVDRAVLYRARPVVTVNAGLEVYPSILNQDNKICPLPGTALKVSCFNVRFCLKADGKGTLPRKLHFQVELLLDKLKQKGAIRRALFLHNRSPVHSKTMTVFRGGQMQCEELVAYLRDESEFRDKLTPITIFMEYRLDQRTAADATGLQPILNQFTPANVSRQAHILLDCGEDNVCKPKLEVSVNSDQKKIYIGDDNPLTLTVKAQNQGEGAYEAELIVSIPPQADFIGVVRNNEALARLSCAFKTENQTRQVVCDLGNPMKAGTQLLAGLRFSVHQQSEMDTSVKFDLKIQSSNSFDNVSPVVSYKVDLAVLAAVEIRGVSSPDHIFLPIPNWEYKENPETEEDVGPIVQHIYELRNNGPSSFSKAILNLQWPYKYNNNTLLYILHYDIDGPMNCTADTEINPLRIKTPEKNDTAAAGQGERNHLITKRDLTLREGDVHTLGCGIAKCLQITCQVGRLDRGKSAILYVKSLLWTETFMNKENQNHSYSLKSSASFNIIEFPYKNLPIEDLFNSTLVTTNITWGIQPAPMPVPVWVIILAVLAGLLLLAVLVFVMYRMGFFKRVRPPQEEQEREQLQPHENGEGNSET
murine αVβ3/5 integrin (murine melanoma cell line B16F10, negative control) (murine), sequence (O54890 26-787, form in doubt, chain 2 of 3, further chain): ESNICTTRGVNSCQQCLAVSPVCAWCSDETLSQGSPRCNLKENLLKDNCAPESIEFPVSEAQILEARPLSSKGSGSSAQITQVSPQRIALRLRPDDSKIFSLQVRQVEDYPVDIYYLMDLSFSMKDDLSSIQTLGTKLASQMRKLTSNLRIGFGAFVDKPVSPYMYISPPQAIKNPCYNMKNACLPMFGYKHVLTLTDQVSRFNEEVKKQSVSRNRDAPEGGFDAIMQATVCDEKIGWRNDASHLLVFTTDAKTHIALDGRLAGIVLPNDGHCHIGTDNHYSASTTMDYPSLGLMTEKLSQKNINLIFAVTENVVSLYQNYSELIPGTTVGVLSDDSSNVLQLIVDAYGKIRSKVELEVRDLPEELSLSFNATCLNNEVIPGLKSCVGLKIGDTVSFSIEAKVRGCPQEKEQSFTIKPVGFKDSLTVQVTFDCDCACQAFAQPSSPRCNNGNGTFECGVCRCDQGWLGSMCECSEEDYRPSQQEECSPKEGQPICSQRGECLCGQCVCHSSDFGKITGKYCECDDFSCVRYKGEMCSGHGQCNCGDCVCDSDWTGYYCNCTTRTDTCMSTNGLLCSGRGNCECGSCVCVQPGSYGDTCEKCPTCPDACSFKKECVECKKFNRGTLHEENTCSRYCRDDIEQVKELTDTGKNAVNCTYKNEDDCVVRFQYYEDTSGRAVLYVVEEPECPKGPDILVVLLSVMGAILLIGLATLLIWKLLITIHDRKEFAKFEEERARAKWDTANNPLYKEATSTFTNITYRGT
murine αVβ3/5 integrin (murine melanoma cell line B16F10, negative control) (murine), sequence (O70309 24-798, form in doubt, chain 3 of 3, further chain): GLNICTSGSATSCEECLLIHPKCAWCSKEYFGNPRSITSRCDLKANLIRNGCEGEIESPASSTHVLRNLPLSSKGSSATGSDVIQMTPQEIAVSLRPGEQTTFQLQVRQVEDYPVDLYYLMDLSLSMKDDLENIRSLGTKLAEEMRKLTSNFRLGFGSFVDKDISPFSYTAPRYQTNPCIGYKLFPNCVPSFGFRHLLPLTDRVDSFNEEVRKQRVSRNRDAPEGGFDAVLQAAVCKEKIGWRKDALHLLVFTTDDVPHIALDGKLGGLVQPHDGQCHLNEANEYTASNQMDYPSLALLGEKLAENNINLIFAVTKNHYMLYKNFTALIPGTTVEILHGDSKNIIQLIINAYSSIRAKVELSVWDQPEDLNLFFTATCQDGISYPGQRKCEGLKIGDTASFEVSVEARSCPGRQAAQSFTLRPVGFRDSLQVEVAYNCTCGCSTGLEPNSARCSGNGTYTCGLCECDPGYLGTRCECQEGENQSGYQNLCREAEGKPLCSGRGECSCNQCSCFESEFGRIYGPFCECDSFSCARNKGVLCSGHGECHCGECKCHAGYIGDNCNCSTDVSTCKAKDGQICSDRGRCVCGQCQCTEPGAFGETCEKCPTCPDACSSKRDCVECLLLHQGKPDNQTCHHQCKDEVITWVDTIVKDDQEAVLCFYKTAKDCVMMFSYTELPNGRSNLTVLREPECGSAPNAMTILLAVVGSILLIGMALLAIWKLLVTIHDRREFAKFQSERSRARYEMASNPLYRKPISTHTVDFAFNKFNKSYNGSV

- Increase (ratio of IC50 of liposome-entrapped dox to IC50 of integrin-targeted 90:1), breast cancer MDA-MB-231 cells [1]: 5 fold
- Increase (ratio of IC50 of liposome-entrapped dox to IC50 of integrin-targeted 90:1), colon cancer HT29 cells [1]: 1.1 fold
- Increase (ratio of IC50 of liposome-entrapped dox to IC50 of integrin-targeted 90:1), lung cancer A549 cells [1]: 1 fold
- Increase (ratio of IC50 of liposome-entrapped dox to IC50 of integrin-targeted 90:1), melanoma A375.S2 cells [1]: 29 fold
- Increase (ratio of IC50 of liposome-entrapped dox to IC50 of integrin-targeted 90:1), ovarian cancer A2780 cells [1]: 29 fold
- IC50 of doxorubicin, integrin targeted liposome-entrapped dox 90:1, murine melanoma B16-F10 cells (negative control) [2]: > 200
- Increase (ratio of IC50 of liposome-entrapped dox to IC50 of integrin-targeted 90:1), murine melanoma B16-F10 cells (negative control) [2]: 1 fold
Substance: CNTO95 Fab′ (from pepsin F(ab′)2, reduced and reoxidized) conjugated to MalPEG-DSPE on the surface of liposomes
